Data taken from US20220112292A1 (ALETA BIOTHERAPEUTICS, published 2022).

Columns and labels:
[1] = target: T1, CLL-1 on U937 cells (human, UniProt Q5QGZ9 1-265); assay: flow cytometry on U937 cells, clone lysate, anti-cMyc-PE (Table 3 summary)
T1 construct: whole, on cells; also called CLEC12A; Clec12A
T1 sequence: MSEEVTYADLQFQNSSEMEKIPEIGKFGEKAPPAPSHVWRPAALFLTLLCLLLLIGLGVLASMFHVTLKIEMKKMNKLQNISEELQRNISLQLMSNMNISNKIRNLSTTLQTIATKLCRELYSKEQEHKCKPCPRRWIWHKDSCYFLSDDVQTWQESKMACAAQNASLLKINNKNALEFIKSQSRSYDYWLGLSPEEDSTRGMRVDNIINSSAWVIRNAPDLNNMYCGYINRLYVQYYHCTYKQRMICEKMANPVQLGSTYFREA

[2] = target: T2, Clec12A-His (Sino Biological, 11896-H07H) (human, UniProt Q5QGZ9 65-265); assay: ELISA on plate coated with CLEC12a-His; unlabeled VHH at 10 ug/ml first, biotinylated VHH at 0.2 ug/ml second, streptavidin-HRP
T2 construct: Bought soluble protein; also called soluble CLEC12a-His; Sino Biological Clec12A
T2 chain: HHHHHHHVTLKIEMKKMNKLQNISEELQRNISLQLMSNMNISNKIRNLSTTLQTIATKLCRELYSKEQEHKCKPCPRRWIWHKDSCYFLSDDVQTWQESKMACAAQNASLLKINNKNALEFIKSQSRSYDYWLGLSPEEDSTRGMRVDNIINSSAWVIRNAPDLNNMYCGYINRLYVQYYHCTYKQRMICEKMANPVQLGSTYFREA
Description: ELISAs were used to determine if the VHH clones recognized distinct or similar epitopes. […] The plate was blocked with 0.3% nonfat milk in TBS (200 ul/well) for 1 hr at RT. The plates were washed 3× with 1×TBST (0.1 M Tris, 0.5 M NaCl and 0.05% Tween-20). The test anti-CLEC12a VHHs were added at 10 ug/ml horizontally across the plate, 100 ul per well and incubated for 1 h. Without washing, the test anti-CLEC12a biotinylated VHHs were added at 0.2 ug/ml vertically down the plate, 100 ul per well and incubate for 1 h. After being washed 3× with 1×TBST, HRP-conjugated streptavidin (Pierce #21130) at 1:2000 (100 ul/well) was added, followed by incubation at RT in the dark for 1 hr. For detection, 1-Step Ultra TMB-ELISA reagent (Thermo Fisher #34028) was added at 100 ul per well and read at 450 nm. […] The 1H1 VHH was distinct from these, and 2C2 was intermediate. Results are depicted in FIGS. 7A-7D.

[3] = target: T1, CLL-1 on U937 cells; assay: flow cytometry on U937 cells, 3x serial dilutions from 3 ug/ml, anti-His-PE
Description: (§1) U937 cell binding by VHH clones was assessed using varying doses to determine EC50s. Briefly, the method included: VHH clones (3 ug/ml as starting conc./test, with 3× serial dilutions) in FACS buffer were added to Fc blocked U937 or 293T-CLL1 cells (2.5×10\hat{ }5), the mixtures were incubated for 30 min at 4° C., then washed twice with FACS buffer by spinning at 500G for 2 min; anti-His-PE was added to cells, the mixture was incubated for 30 min at 4° C. and washed twice with FACS buffer by spinning at 500G for 2 min; 1% PFA (Paraformaldehyde) in PBS was added to cell pellet to fix the cells, followed by FACS analysis. VHH clones tested: 1B5: stock=1.6 mg/ml; 1H1: stock=1.9 mg/ml; 1G6: stock=1.1 mg/ml; 2F3: stock=1.45 mg/ml; 2F5: stock=0.5 mg/ml; 2H3: stock=2 mg/ml.

[4] = target: T1, CLL-1 on U937 cells; assay: flow cytometry on U937 cells, VHH in 3-fold dilutions, detected with a-His-PE; percent of cells positive
Description: as §1

[5] = target: T1, CLL-1 on U937 cells; assay: flow cytometry on U937 cells, VHH at 3 ug/ml, detected with a-His-PE; a-His-PE alone 1.1% and 5,576.5, unstained 0.6% and 5,793.5
Description: U937 cell binding by VHH clones was assessed. Briefly, the method included: U937 cells (2.5×10\hat{ }5) were Fc blocked (human Fc block, BD Cat. #BDB564220) for 10 min at room temperature, then washed once with FACS buffer (PBS+1% BSA+0.1% Sodium Azide) by spinning at 500G for 2 min; VHH clones (3 μg/ml as final conc) in FACS buffer were added to the cell pellets and incubated for 30 min at 4° C., then washed twice with FACS buffer by spinning at 500G for 2 min; anti-His-PE (R&D Systems, Cat. #IC050P) was added to cells; the mixture was incubated for 30 min at 4° C. and washed twice with FACS buffer by spinning at 500G for 2 min; 1% PFA (Paraformaldehyde) in PBS was added to cell pellet to fix the cells, followed by FACS analysis. VHH clones tested: 1B5: stock=1.6 mg/ml; 1H1: stock=1.9 mg/ml; 1G6: stock=1.1 mg/ml; 2F3: stock=1.45 mg/ml; 2F5: stock=0.5 mg/ml; 2H3: stock=2 mg/ml. As shown in FIGS. 2A-2C, binding of clones 1H1, 1G6, 2F5 and 2H3 to U937 cells was detected with anti-His-PE; very little binding of clones 1B5 and 2F3 to U937 cells could be detected by anti-His-PE.

[6] = target: T1, CLL-1 on U937 cells; assay: flow cytometry on U937 cells, % binding against ng/ml, detected with a-His-PE; EC50 of the fitted curve
Description: as §1

[7] = target: T1, CLL-1 on U937 cells; assay: flow cytometry on U937 cells, % binding against ng/ml, detected with a-His-PE; EC50 of the fitted curve; the curve of 1H1 reaches about 70% at 3000 ng/ml without a plateau
Description: as §1

B1: VHH clone 2A8 (VHH)
VHH: QVQLQAFGGGMVQAGESLRLSCVASGNDISGSAMAWYRAHLGAERELVAVDAPRERPFYIDPVIGRFTISRDDRNKMLYLQMNDLRPDDTATYWCGPSLRTFHGREWYRPPWFTSWGQGTQVTVSS
notes: Includes myc and His tags
In the case of B1, the “% FACS positive” value [1] is reported as 40.1%.

B2: VHH clone 1B1 (VHH)
VHH: QVQLQESGGGLVQAGGSLRLSCAASGSIFAINEINLMGWYRQAPGKQRELVAACASDGNTYYADSVKGRFTISRDNAEKTVYLQMNNLKPDDTAVYYCDANSRGNYYSGQGTQVTVSS
notes: also called 2A6; 2A10
B2: binds [2].

B3: VHH clone 2A11 (VHH)
VHH: QVQLQESGGGLVQPGGSLRLSCAASGSIFAINEINLMGWYRQAPGKQRELVAACASDGNTYYADSVKGRFTISRDNAEKTVYLQMNNLKPDDTAVYYCDANSRGNYYSGQGTLVTVSS
notes: Includes myc and His tags
In the case of B3, the “% FACS positive” value [1] is reported as 86.3%.

B4: VHH clone 1G6 (VHH)
VHH: QVQLQQSGGGLVQAGGSLRLSCAASGSIFAINEINLMGWYRQAPGKQRELVAACASDGNTYYADSVKGRFTISRDNAEKTVYLQMNNLKPDDTAVYYCDANSRGNYYSGQGTQVTVSS
notes: includes myc and His tags; also called 2G11; 2H2
For B4, the EC50 [3] was 0.49 nM, the binding result [2] was “binds” and the “% binding at 1.4 ng/ml” value [4] was 6%. For the same binder, the “% binding at 4.1 ng/ml” value [4] was 26.8%, the “% binding at 12.3 ng/ml” value [4] was 56.7% and the “% binding at 37.0 ng/ml” value [4] was 83.1%. For the same binder, the “% binding at 111.1 ng/ml” value [4] was 87.7%, the “% binding at 333.3 ng/ml” value [4] was 88.2% and the “% binding at 1000 ng/ml” value [4] was 88.6%. The “% binding at 3000 ng/ml” value [4] was 88.9%, the “% of This Plot (R3 PE+)” value [5] was 95.6% and the “Mean FL2-A (R3 gate)” value [5] was 9310. It also gave an EC50 [6] of 7.72 ng/mL.

B5: VHH clone 2C8 (VHH)
VHH: QVQLVESGGGLVQAGGSLRLSCAASGSIFAINEINLMGWYRQAPGKQRELVAACASDGNTYYADSVKGRFTISRDNAEKTVYLQMNNLKPDDTAVYYCDANSRGNYYSGQGTLVTVSS
notes: Includes myc and His tags
In the case of B5, the “% FACS positive” value [1] is reported as 73.4%.

B6: VHH clone 2H10 (VHH)
VHH: QVQLQEFGGGLVQAGGSLRLSCAASGSIFAINEINLMGWYRQAPGKQRELVAACASDGNTYYADSVKGRFTISRDNAEKTVYLQMNNLKPDDTAVYYCDANSRGNYYSGQGTQVTVSS
notes: includes myc and His tags; also called 1G3
With B6 the “% FACS positive” value [1] was 85.9%.

B7: VHH clone 2F5 (VHH)
VHH: QVQLQQSGGGLAQTGGSLILSCAASGSIFAINEINLMGWYRQAPGKQRELVAACASDGNTYYADSVKGRFTISRDNAEKTVYLQMNNLKPDDTAVYYCDANSRGNYYSGQGTQVTVSS
notes: Includes myc and His tags
In the case of B7, the EC50 [3] is reported as 0.47 nM, the binding result [2] is reported as “binds” and the “% binding at 1.4 ng/ml” value [4] is reported as 4.6%. For the same binder, the “% binding at 4.1 ng/ml” value [4] was 24.2%, the “% binding at 12.3 ng/ml” value [4] was 59.3% and the “% binding at 37.0 ng/ml” value [4] was 83.1%. The “% binding at 111.1 ng/ml” value [4] was 86%, the “% binding at 333.3 ng/ml” value [4] was 86.7% and the “% binding at 1000 ng/ml” value [4] was 85.9%. For the same binder, the “% binding at 3000 ng/ml” value [4] was 86.4%, the “% of This Plot (R3 PE+)” value [5] was 95.5% and the “Mean FL2-A (R3 gate)” value [5] was 9260. The “% FACS positive” value [1] was 72.7% and the EC50 [6] was 7.45 ng/mL.

B8: VHH clone 2F3 (VHH)
VHH: QVQLQAFGGGLVQPGGSLRLSCVVSGTMFSGKDVNWLRQAPGKHVEVVATVSSDGGTDYADFVKGRFTISRDDAKNTVNLQMNSLEPEDTANYMCHFLWGRHYWGQGTQVTVSS
notes: Includes myc and His tags
B8 was tested, and the “% of This Plot (R3 PE+)” value [5] was 12.4% and the “Mean FL2-A (R3 gate)” value [5] was 3570.

B9: VHH clone 1H1 (VHH)
VHH: QVQLQESGGGLVQPGGSLRLSCAASGFTFNSYAMTWVRQAPGKGLEWVSDINSGGGSTNYADSVKGRFTISRDNAKNTLYLQMNSLKPEDTAVYYCATELRGSDYYRGPIREYAYWGQGTLVTVSS
notes: includes myc and His tags; also called 2F4
With B9 the EC50 [3] was 81 nM, the binding result [2] was “binds” and the “% binding at 1.4 ng/ml” value [4] was 0.6%. For the same binder, the “% binding at 4.1 ng/ml” value [4] was 0.7%, the “% binding at 12.3 ng/ml” value [4] was 0.7% and the “% binding at 37.0 ng/ml” value [4] was 0.9%. The “% binding at 111.1 ng/ml” value [4] was 2.1%, the “% binding at 333.3 ng/ml” value [4] was 10.4% and the “% binding at 1000 ng/ml” value [4] was 35.7%. The “% binding at 3000 ng/ml” value [4] was 71%, the “% of This Plot (R3 PE+)” value [5] was 88.6% and the “Mean FL2-A (R3 gate)” value [5] was 6730. For the same binder, the “% FACS positive” value [1] was 10.8% and the EC50 [7] was 1370 ng/mL.

B10: VHH clone 2G10 (VHH)
VHH: QVQLQQSGGGLVQAGGSLRLSCAASGSIFSINAMGWYRQAPGKRREMVAVVSRFGETTYTGSVKGRFTISRINRNNTVFLQMNRLKPEDTAVYYCNARIRGNYGSRIDYWGQGTQVTVSS
notes: Includes myc and His tags
For B10, the “% FACS positive” value [1] was 59.7%.

B11: VHH clone 1B11 (VHH)
VHH: AVQLQESGGGLVQAGGSLRLSCAASGSDRSINVMNWYRQAPGKQRELVAAITSGGTTNYAQSVKGRVTISRDSAKNTVYLQMNSLKPEDTAVYFCKADTRWGGMYWGPGTQVTVSS
notes: Includes myc and His tags
With B11 the “% FACS positive” value [1] was 77.8%.

B12: VHH clone 1D2 (VHH)
VHH: QVQLQQSGGGLVQPGGSLRLSCAASGFAFDDYAMIWVRQGPGKGLEWVSSISWNGGGTYYAESIVGRFTVSRDNAKKMVYLQMNGLKSEDTAMYYCVKLVDSGWYSAYDYWGQGTQVTVSS
notes: Includes myc and His tags
With B12 the “% FACS positive” value [1] was 14.6%.

B13: VHH clone 1B5 (VHH)
VHH: QVQLQESGGGLVQAGGSLRLSCVVSGATSNVNAMGWYRQAPGKERELVAAISSGGSTSYRDSVKGRFTISRDNAKNTLYLQMNSLKPEDTAMYYCAAQDWATEGYEYDYWGQGTLVTVSS
notes: Includes myc and His tags
With B13 the “% of This Plot (R3 PE+)” value [5] was 2.3% and the “Mean FL2-A (R3 gate)” value [5] was 4130.

B14: VHH clone 1A10 (VHH)
VHH: QVQLQESGGGLVQVGESLRLSCVVSGDTRSINLMGWYRQAPGKQRELVAACASDGNTYYADSVKGRFTISRDNAEKTVYLQMNNLKPDDTAVYYCDANSRGNYYSGQGTLVTVSS
notes: Includes myc and His tags
B14 was tested, and the binding result [2] was “binds” and the “% FACS positive” value [1] was 84.9%.
